Experimental data taken from IntAct's records for PubMed 16763556.

B1: DNA polymerase eta (Homo sapiens), Q9Y253 (parent)
chain: MATGQDRVVALVDMDCFFVQVEQRQNPHLRNKPCAVVQYKSWKGGGIIAVSYEARAFGVTRSMWADDAKKLCPDLLLAQVRESRGKANLTKYREASVEVMEIMSRFAVIERASIDEAYVDLTSAVQERLQKLQGQPISADLLPSTYIEGLPQGPTTAEETVQKEGMRKQGLFQWLDSLQIDNLTSPDLQLTVGAVIVEEMRAAIERETGFQCSAGISHNKVLAKLACGLNKPNRQTLVSHGSVPQLFSQMPIRKIRSLGGKLGASVIEILGIEYMGELTQFTESQLQSHFGEKNGSWLYAMCRGIEHDPVKPRQLPKTIGCSKNFPGKTALATREQVQWWLLQLAQELEERLTKDRNDNDRVATQLVVSIRVQGDKRLSSLRRCCALTRYDAHKMSHDAFTVIKNCNTSGIQTEWSPPLTMLFLCATKFSASAPSSSTDITSFLSSDPSSLPKVPVTSSEAKTQGSGPAVTATKKATTSLESFFQKAAERQKVKEASLSSLTAPTQAPMSNSPSKPSLPFQTSQSTGTEPFFKQKSLLLKQKQLNNSSVSSPQQNPWSNCKALPNSLPTEYPGCVPVCEGVSKLEESSKATPAEMDLAHNSQSMHASSASKSVLEVTQKATPNPSLLAAEDQVPCEKCGSLVPVWDMPEHMDYHFALELQKSFLQPHSSNPQVVSAVSHQGKRNPKSPLACTNKRPRPEGMQTLESFFKPLTH
B2: DNA polymerase iota (Homo sapiens), Q9UNA4 (parent)
chain: MEKLGVEPEEEGGGDDDEEDAEAWAMELADVGAAASSQGVHDQVLPTPNASSRVIVHVDLDCFYAQVEMISNPELKDKPLGVQQKYLVVTCNYEARKLGVKKLMNVRDAKEKCPQLVLVNGEDLTRYREMSYKVTELLEEFSPVVERLGFDENFVDLTEMVEKRLQQLQSDELSAVTVSGHVYNNQSINLLDVLHIRLLVGSQIAAEMREAMYNQLGLTGCAGVASNKLLAKLVSGVFKPNQQTVLLPESCQHLIHSLNHIKEIPGIGYKTAKCLEALGINSVRDLQTFSPKILEKELGISVAQRIQKLSFGEDNSPVILSGPPQSFSEEDSFKKCSSEVEAKNKIEELLASLLNRVCQDGRKPHTVRLIIRRYSSEKHYGRESRQCPIPSHVIQKLGTGNYDVMTPMVDILMKLFRNMVNVKMPFHLTLLSVCFCNLKALNTAKKGLIDYYLMPSLSTTSRSGKHSFKMKDTHMEDFPKDKETNRDFLPSGRIESTRTRESPLDTTNFSKEKDINEFPLCSLPEGVDQEVFKQLPVDIQEEILSGKSREKFQGKGSVSCPLHASRGVLSFFSKKQMQDIPINPRDHLSSSKQVSSVSPCEPGTSGFNSSSSSYMSSQKDYSYYLDNRLKDERISQGPKEPQGFHFTNSNPAVSAFHSFPNLQSEQLFSRNHTTDSHKQTVATDSHEGLTENREPDSVDEKITFPSDIDPQVFYELPEAVQKELLAEWKRAGSDFHIGHK

Variants of: B1
Conditions: with ubc_human UBC

| Variant | effect of a mutation on the interaction |
| --- | --- |
| H654A | disrupting interaction |

Variants of: B2
Conditions: with ubc_human UBC

| Variant | effect of a mutation on the interaction |
| --- | --- |
| P717R | decreasing interaction strength |
